# Read-outs that look alike come from different tables or passages of the source.
# B1: KGF: Keratinocyte growth factor, encoded in humans by the FGF7 gene, binds FGFR2b (protein, UniProt P21781 32-194, looked up)
# Fibroblast growth factor 7: CNDMTPEQMATNVNCSSPERHTRSYDYMEGGDIRVRRLFCRTQWYLRIDKRGKVKGTQEMKNNYNIMEIRTVAVGIVAIKGVESEFYLAMNKEGKLYAKKECNEDCNFKELILENHYNTYASAKWTHNGGEMFVALNQKGIPVRGKKTKKEQKTAHFLPMAIT
# Tested on: Human primary keratinocytes
# Assay: Keratinocyte growth in culture media: rhodamine B staining, confluency measured with Operetta plate reader
# Type: cell-based
molecule,measurement,setting,value
B1,"effect of added KGF on keratinocyte growth, FIG. 1",,cannot rescue the growth
same,"effect of added KGF on keratinocyte growth, FIG. 1",added to Green's media + Y27632,fails to enhance keratinocyte growth
same,"effect of added KGF on keratinocyte growth, FIG. 1",added to base media + Y27632,stimulates growth
same,"effect of adding KGF to Base medium on keratinocyte growth, FIG. 2","in the presence of ROCK inhibitor SB772077B, no MEFs",critical component in Kelch's medium

# Reference: patent US20250179429A1, “CELL CULTURE MEDIUM” (Auckland UniServices Limited, priority 2017, published 2025)
